Experimental data reported in article PMC8442604 (Frontiers in Immunology, 2021).

Target: T1, SARS-CoV-2 RBD protein (321–591) (SARS-CoV-2, Wuhan-Hu-1 (MN908947), UniProt P0DTC2)
Assay: ELISA
Details: one partner purified

| Binder | binding result |
| --- | --- |
| B38 (antibody, V domains shown) VH: EVQLVESGGGLVQPGGSLRLSCAASGFIVSSNYMSWVRQAPGKGLEWVSVIYSGGSTYYADSVKGRFTISRHNSKNTLYLQMNSLRAEDTAVYYCAREAYGMDVWGQGTTVTVSS VL: DIVMTQSPSFLSASVGDRVTITCRASQGISSYLAWYQQKPGKAPKLLIYAASTLQSGVPSRFSGSGSGTEFTLTISSLQPEDFATYYCQQLNSYPPYTFGQGTKLEIK | binds |
| 2-4 (antibody, V domains shown) VH: QVQLVQSGAEVKKPGASVKVSCKASGYTFTGYYMHWVRQAPGQGLEWMGWINPNSGGTNYTQMFQGRVTMTRDTSISTAYMEVSRLRSDDTAVYYCARDRSWAVVYYYMDVWGKGTTVTVSS VL: QSALTQPPSASGSPGQSVTISCTGTSSDVGGYNYVSWYQQHPGKAPKLMIYEVSKRPSGVPDRFSGSKSGNTASLTVSGLQAEDEADYYCSSYAGSNNLVFGGGTKLTVL | binds |
| 4A8 (antibody, V domains shown) VH: EVQLVESGAEVKKPGASVKVSCKVSGYTLTELSMHWVRQAPGKGLEWMGGFDPEDGETMYAQKFQGRVTMTEDTSTDTAYMELSSLRSEDTAVYYCATSTAVAGTPDLFDYYYGMDVWGQGTTVTVSS VL: EIVMTQSPLSSPVTLGQPASISCRSSQSLVHSDGNTYLSWLQQRPGQPPRLLIYKISNRFSGVPDRFSGSGAGTDFTLKISRVEAEDVGVYYCTQATQFPYTFGQGTKVDIK | no binding |
| LCA60 (antibody, V domains shown, also called MERS nAb LCA60) VH: EVQLLESGGGLVKPGGSLRLSCEASGLTFSNVWMSWVRQAPGKGLEWVGRIKRKSEGATTDYGAPVKGRFTLSRDDSKNTVYLQMNSLKIDDTAVYYCSTLTRGGDVWSSSYYFDYWGQGALVTVSS VL: QSALTQPASVSGSPGQSITISCTGTSSDVGTYDLVSWYQQHPGKSPKLMIYADIKRPSGVSHRFSGSKSGNTASLTISGLQSADEADYYCCLYAGSSTSVIFGGGTKVT | no binding |
| REGN10933 (antibody, V domains shown) VH: QVQLVESGGGLVKPGGSLRLSCAASGFTFSDYYMSWIRQAPGKGLEWVSYITYSGSTIYYADSVKGRFTISRDNAKSSLYLQMNSLRAEDTAVYYCARDRGTTMVPFDYWGQGTLVTVSS VL: DIQMTQSPSSLSASVGDRVTITCQASQDITNYLNWYQQKPGKAPKLLIYAASNLETGVPSRFSGSGSGTDFTFTISGLQPEDIATYYCQQYDNLPLTFGGGTKVEIK | binds |
| C105 (antibody, V domains shown) VH: QVQLVESGGGLIQPGGSLRLSCAASGFTVSSNYMSWVRQAPGKGLEWVSVIYSGGSTYYADSVKGRFTISRDNSKNTLYLQMNSLRAEDTAVYYCARGEGWELPYDYWGQGTLVTVSS VL: QSALTQPPSASGSPGQSVTISCTGTSSDVGGYKYVSWYQQHPGKAPKLMIYEVSKRPSGVPDRFSGSKSGNTASLTVSGLQAEDEADYYCSSYEGSNNFVVFGGGTKLTVL | binds |
| EY6A (antibody, V domains shown) VH: EVQLVESGGGVVQPGRSLRLSCAASAFTFSSYDMHWVRQAPGKGLEWVAVISYDGSNKYYADSVKGRFTISRDNSKNTLYLQMNSLRAEDTAVYYCAKDGGKLWVYYFDYWGQGTLVTVSS VL: not shown | binds |
| CC12.3 (antibody, V domains shown) VH: QVQLVESGGGLIQPGGSLRLSCAASGFTVSSNYMSWVRQAPGKGLEWVSVIYSGGSTFYADSVKGRFTISRDNSKSTLYLQMNSLRVEDTAVYYCARDFGDFYFDYWGQGTLVTVSS VL: not shown | binds |
| REGN10987 (antibody, V domains shown) VH: QVQLVESGGGVVQPGRSLRLSCAASGFTFSNYAMYWVRQAPGKGLEWVAVISYDGSNKYYADSVKGRFTISRDNSKNTLYLQMNSLRTEDTAVYYCASGSDYGDYLLVYWGQGTLVTVSS VL: QSALTQPASVSGSPGQSITISCTGTSSDVGGYNYVSWYQQHPGKAPKLMIYDVSKRPSGVSNRFSGSKSGNTASLTISGLQSEDEADYYCNSLTSISTWVFGGGTKLTVL | binds |

Target: T1, SARS-CoV-2 RBD protein (321–591)
Assay: SPR
Details: both partners purified

| Binder | Kd |
| --- | --- |
| CB6H-XG83L (antibody, V domains shown) VH: EVQLVESGGGLVQPGGSLRLSCAASGFTVSSNYMSWVRQAPGKGLEWVSVIYSGGSTFYADSVKGRFTISRDNSMNTLFLQMNSLRAEDTAVYYCARVLPMYGDYLDYWGQGTLVTVSS VL: QSVLTQPPSVSGAPGQRVTISCTGSSSNIGAGYDVHWYQQLPGTAPKLLIYGDSNRPSGVPDRFSGSKSGTSASLAITGLQAEDEADFYCQSYDSSLSTSIFGGGTKLTVL | 0.58 nM |
| CB6 (antibody, V domains shown) VH: EVQLVESGGGLVQPGGSLRLSCAASGFTVSSNYMSWVRQAPGKGLEWVSVIYSGGSTFYADSVKGRFTISRDNSMNTLFLQMNSLRAEDTAVYYCARVLPMYGDYLDYWGQGTLVTVSS VL: not shown | 43.8 nM |

Target: T1, SARS-CoV-2 RBD protein (321–591)
Assay: cell-based or functional assay
Details: not given

| Binder | IC50 of neutralisation of authentic SARS-CoV-2 on Vero E6 cells (CPE assay) |
| --- | --- |
| CB6H-XG83L (antibody, V domains shown) VH: EVQLVESGGGLVQPGGSLRLSCAASGFTVSSNYMSWVRQAPGKGLEWVSVIYSGGSTFYADSVKGRFTISRDNSMNTLFLQMNSLRAEDTAVYYCARVLPMYGDYLDYWGQGTLVTVSS VL: QSVLTQPPSVSGAPGQRVTISCTGSSSNIGAGYDVHWYQQLPGTAPKLLIYGDSNRPSGVPDRFSGSKSGTSASLAITGLQAEDEADFYCQSYDSSLSTSIFGGGTKLTVL | 1.1 µg/mL |
